Experimental data published in article PMC7423370 (Science Advances, 2020).

Molecular target: T1, human CLC-7 with C-terminal tandem twin Strep-tag (human, UniProt P51798 1-805)
T1 sequence: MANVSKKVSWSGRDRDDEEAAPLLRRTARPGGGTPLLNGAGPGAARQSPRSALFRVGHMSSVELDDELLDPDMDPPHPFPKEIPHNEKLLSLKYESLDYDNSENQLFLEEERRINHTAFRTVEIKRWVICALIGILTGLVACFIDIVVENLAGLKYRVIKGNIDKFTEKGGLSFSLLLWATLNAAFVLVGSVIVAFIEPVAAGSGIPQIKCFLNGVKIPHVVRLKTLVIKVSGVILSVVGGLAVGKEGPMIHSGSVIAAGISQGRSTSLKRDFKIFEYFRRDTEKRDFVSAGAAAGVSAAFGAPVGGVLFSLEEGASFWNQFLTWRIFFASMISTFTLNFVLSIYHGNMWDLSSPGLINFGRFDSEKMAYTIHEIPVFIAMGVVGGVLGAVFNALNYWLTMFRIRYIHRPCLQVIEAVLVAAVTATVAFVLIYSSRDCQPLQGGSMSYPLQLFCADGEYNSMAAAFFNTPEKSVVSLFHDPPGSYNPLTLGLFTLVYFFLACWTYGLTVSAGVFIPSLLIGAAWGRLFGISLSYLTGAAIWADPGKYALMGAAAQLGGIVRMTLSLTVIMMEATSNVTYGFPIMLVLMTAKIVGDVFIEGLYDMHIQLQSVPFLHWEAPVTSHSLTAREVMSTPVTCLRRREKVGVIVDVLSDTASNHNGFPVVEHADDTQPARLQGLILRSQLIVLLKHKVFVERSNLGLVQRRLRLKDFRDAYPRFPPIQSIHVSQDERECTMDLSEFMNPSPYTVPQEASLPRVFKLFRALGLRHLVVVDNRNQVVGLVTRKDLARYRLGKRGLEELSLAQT
Assay: cryo-EM structure

B1: human Ostm1, no tag (natural protein)
chain: ALPFGSSPHRVFHDLLSEQQLLEVEDLSLSLLQGGGLGPLSLPPDLPDLDPECRELLLDFANSSAELTGCLVRSARPVRLCQTCYPLFQQVVSKMDNISRAAGNTSESQSCARSLLMADRMQIVVILSEFFNTTWQEANCANCLTNNSEELSNSTVYFLNLFNHTLTCFEHNLQGNAHSLLQTKNYSEVCKNCREAYKTLSSLYSEMQKMNELENKAEPGTHLCIDVEDAMNITRKLWSRTFNCSVPCSDTVPVIAVSVFILFLPVVFYLSSFLHSEQKKRKLILPKRLKSSTSFANIQENSN
modifications: glycosylation (NAG) at Asn93, Asn128, Asn163, Asn184, Asn194, Asn216, Asn263
Question: Does B1 bind?
Answer: Result: binds
